Laboratory results from patent US20170129940A1 (INSTITUTE FOR RESEARCH IN BIOMEDICINE, published 2017).

How the values were obtained:
Assay in all cases: cell-based or functional assay
[1] = biological target: T1, hCMV UL128 + UL130 + UL131A (co-expressed in HEK293T cells) (human cytomegalovirus, UniProt P16837 28-171; P16772 1-214; F5HET4 19-129)
[2] = biological target: T1, hCMV UL128 + UL130 + UL131A …; remark: listed apart in the source
[3] = biological target: T2, hCMV UL130 + UL131A (co-expressed in HEK293T cells) (human cytomegalovirus, UniProt P16772 1-214; F5HET4 19-129)
[4] = biological target: T2, hCMV UL130 + UL131A (co-expressed in …); remark: listed apart in the source
[5] = biological target: T3, hCMV gH (expressed in HEK293T cells) (human cytomegalovirus, UniProt P12824 24-743)
[6] = biological target: T3, hCMV gH (expressed in HEK293T cells); remark: listed apart in the source

T1 sequence (P16837 28-171 limits assumed, one chain of several): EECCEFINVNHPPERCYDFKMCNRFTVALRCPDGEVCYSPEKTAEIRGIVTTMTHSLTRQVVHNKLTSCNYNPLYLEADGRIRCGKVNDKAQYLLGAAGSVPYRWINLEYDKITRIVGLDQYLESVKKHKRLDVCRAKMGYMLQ

Row | Binder | 50% Neutralization ARPE [1] [µg/mL] | 50% Neutralization MRC-9 [1] [µg/mL] | 90% Neutralization ARPE [2] [µg/mL] | 90% Neutralization MRC-9 [2] [µg/mL] | 50% Neutralization ARPE [3] [µg/mL] | 50% Neutralization MRC-9 [3] [µg/mL] | 90% Neutralization ARPE [4] [µg/mL] | 90% Neutralization MRC-9 [4] [µg/mL] | also measured
1 | 8J16 (antibody, V domains shown) VH: QVQLQESGPGLVKPSETLSLTCSVSGGFTSSYYWSWIRQAPGKGLEWIGYVYYGESTDYNPSLKSRATISIDTSKNQFSLKLSSVTAADTAVYYCAREVDKRGFDYWGQGALVTVSS VL: EIVLTQSPGTLSLSPGERATLSCRASQSVSGGYLAWYQQEPGQAPRLVIYGASSRATGIPDRFSASGSGTDFTLTITRLEPEDFAVYYCQQYGRTPLTFGGGTKVEIK | < 0.001 | > 2 | 0.0008 | > 10 | – | – | – | – | –
2 | 7I13 (antibody, V domains shown) VH: QVQLVESGGGVVQPGRSLRLSCAASGFTFSNYGMHWVRQGPGKGLEWVAVISYDASSKYYTDSVQGRFTISRDNSKNTLFLQMNSLRGEDTAVYYCAKALRYLDWFLSDPFDYWGQGTLVTVSS VL: EIVLTQSPGTLSLSPGERATLSCRASQSVSSDFLAWYQQKPGQAPRLLIYGASSRATGIPDRFSGSGSGTDFTLTISRLEPEDFAVYYCQQYAASPPFGQGTRLEIK | < 0.01 | > 2 | 0.008 | > 10 | – | – | – | – | –
3 | 7B13 (antibody, V domains shown) VH: QVQLVESGGGVVQPGGSLRLSCAASGFSFSNYGMHWVRQAPGKGLEWVALIPSDGNYQYYTDSVKGRFTVSRDNSRNTLYLQMKSLRAEDTARYHCAHLGGGLFDFWGQGTLVTVSS VL: QSALNQPRSVSGSPGQSVSISCTGSSSDVGGYEFVSWYQHHPGKAPKLIIYDVDKRPSGVPDRFSGSRSGDTASLTISGLQAEDEADYYCYSSADTWVFGGGTKLTVL | < 0.001 | > 2 | 0.003 | > 10 | – | – | – | – | –
4 | 2C12 (antibody, V domains shown) VH: QITLRESGPTLVKPTQTLTLTCTFSGFSLNTNGVGVGWIRQPPGKALEWLALIYWNGNEGYSPSLKSRLTITKDTSKNQVVLTMTNMDPVDTATYYCVHWPQGLTTVTRLAFDIWGQGTMVTVSS VL: QSALTQPRSVSGSPGQSVTISCTGTTSDVGRYNFVSWYQQHPGKAPKLLMYDVSQRPSGVPSRFSGSKSGNTASLTISGLQAEDEAVFYCCSYAGGNFFSYVFGTGTKVTVL | < 0.01 | ≤ 2 | 0.006 | > 10 | – | – | – | – | –
5 | 4N10 (antibody, V domains shown) VH: QVQLVQSGAEVKKPGSSVRVSCKASGGTFSSYVIIWVRQAPGQGLEWMGGVIPIFDTVNYAQKFQGRVTITADESTSTAYMELSSLKSEDTAVYYCARGILAYCGGDCYNTPYGMDVWGQGTTVTVSS VL: DIQMTQSPSILSASVGDRVTITCRASQSISSWLAWYQQKPGKAPKLLIYKASSLEIGVPSRISGSGSGTEFTLTISSLQPDDFATYYCQQYNSSWTFGQGTKVEIK | – | – | – | – | < 0.001 | ≤ 2 | 0.02 | > 10 | –
6 | 11B12 (antibody, V domains shown) VH: QMQLVQSGPQVKKPGTSVKVSCKASGFTFTSSAMQWVRQARGQRPEWIGWIVLGSGNTNYAQKFQERVTLTRDMSTATAYMELSSLRSEDTAVYYCAADRGRGGYNVYTYWGQGTLVAVSS VL: EIVMTQSPGTLSLSPGERATLSCRASQTISNTYVAWYQQKPGQAPRLLIYGASSRATGIPDRFSGSGSGTDFTLTIRRLEPEDFAVYYCQQNGQSPWTFGQGTNVEIK | – | – | – | – | – | – | – | – | 50% Neutralization ARPE [5]: ≤ 2 µg/mL; 50% Neutralization MRC-9 [5]: ≤ 2 µg/mL; 90% Neutralization ARPE [6]: 1.2 µg/mL; 90% Neutralization MRC-9 [6]: 3.5 µg/mL
7 | 10P3 (antibody, V domains shown) VH: EVQLVESGGGLVRPGGSLRLSCAASGFTFHNYRMNWVRQAPGKGLEWVANIKQDGSEKSYVDSVRGRFTTSRDNSKNSLYLQINSLRAEDTAVYYCARGEGYTYGVVYSYSAMDVWGQGTTVIVSS VL: SYELTQPPSVSVSPGQTARITCSGNVLPNQYASWYQQKPGQAPVLVIYKDTERPSGIPGRFSGSSSGTTVTLTISGVQAEDEADYYCQSADSSGADYVFGTGTKVTVL | – | – | – | – | < 0.001 | > 2 | 0.0025 | > 10 | –
8 | 4I22 (antibody, V domains shown) VH: QVQLVESGGGVVQPGRSLRLSCVASGFTFSSYAMHWVRQAPGKGLEWVAVISYDGDNKFYADSVKGRFRISRDTSKNTLYLEMNSLRAADTAIYYCAREELVGLMPPYYNYGLDVWGQGTTVTVSS VL: QSVLTQPPSVSAAPGQKVTISCSGSNSNIGNNYVSWYQQLPGRAPKLLIYDNDHRPSGIPDRFSGSKSGTSATLVITGLQTGDEADYYCETWDTSLSAAVVFGGGTKLTVL | – | – | – | – | < 0.01 | > 2 | 0.0015 | > 10 | –
9 | 13H11 (antibody, V domains shown) VH: QVQLVQSGAEVKKPGASVKVSCKASGYTFTNYYIHWVRQAPGQGLEWMGIIHPSSGGTSYAQKFQGRVTMTRDTSTSTVSMDLSSLRSEDTAVYYCGRAFRILGLSDVFVNDWGQGTVVTVSS VL: DIQMTQSPSSLSASVGDRVTITCRASQGINNYLAWYQQKPGKVPKLLIYAASTLQSGVPSRFSGSGSGTAFTLTILSLQPEDVATYYCQKYNSAPFTFGPGTKVDIK | – | – | – | – | – | – | – | – | 50% Neutralization ARPE [5]: < 0.01 µg/mL; 50% Neutralization MRC-9 [5]: ≤ 2 µg/mL; 90% Neutralization ARPE [6]: 0.4 µg/mL; 90% Neutralization MRC-9 [6]: 1.12 µg/mL
10 | 8L13 (antibody, V domains shown) VH: QVQLLESGGGVVQPGRSLRLSCAASGFTFSNYGMHWVRQAPGKGLEWVAVIWNDGSKKYYAESVKGRFTISRDNSKNTVYLQMNSLRAEDTAVYYCARDEGVQMVFAMPDYGMDVWGQGTTVTVSS VL: SYELTQPPSVSVSPGQTASITCSGDKLGDKFACWYQQRPGQSPILVIYQDSKRPSGIPERFSGSNSGNTATLTIRGTQAMDEADYYCQAWDSSTAHYVFGTGTKVTVL | – | – | – | – | < 0.01 | > 2 | 0.001 | > 10 | –
11 | 8C15 (antibody, V domains shown) VH: QVQLQESGPGLVKPSETLSLTCTVSGGSIRSYYWSWIRQPPGKGLEWIGHIYYSGNTNYSPSLQSRVTISLDTPKNQFSLRLSSVTAADTAVYYCARHDVIVVRGVFDVWGQGTVVTVSS VL: QSALTQPASVSGSPGQSITISCTGTSSDIGTYNLVSWYQQHPGKAPKVLIYDGSKRPSGVSSRFSASKSGNTASLTISGLQAEDETDYYCCSYAGTSDFFVVFGGGTKLTVL | < 0.001 | > 2 | 0.0025 | > 10 | – | – | – | – | –
12 | 3G16 (antibody, V domains shown) VH: QSALTQPASVSGSPGESITISCTGTISDVGAYNSVSWYQQHSGTAPELIIYDVTNRPAGVSSRFSGSKSGNTASLTISWLQSEDEAEYYCSSYTTSDTYVFGSGTQVTVL V domain: RAQLVQSAAEMKNPGASVKVSCEASGYTFTGYYVHWMRQAPGQGLEWMGWINPMTGATKSPQKFQGRVTMTRDTSTTATHIELTRLRSDDSAVFFCARGGPTSTRITGKRHFDLWGRGTLITVAS | – | – | – | – | – | – | – | – | 50% Neutralization ARPE [5]: ≤ 2 µg/mL; 50% Neutralization MRC-9 [5]: ≤ 2 µg/mL; 90% Neutralization ARPE [6]: 0.3 µg/mL; 90% Neutralization MRC-9 [6]: 1 µg/mL
13 | 9I6 (antibody, V domains shown) VH: EVQLVQSGAEVKKPGESLKISCRESGDTFPAYWIAWVRQMPGKGLEWMGIIYPIDSETTYSPSFQGQVTISADKSINTAYLQWSSLKASDSAIYYCARGTSTGLREAFHIWGQGTMVTVSS VL: DVVMTQSPLSLAVTLGQPAYISCRSSQSLGYSDGNTYLNWFQQRPGQSPRRLIYEVSNRDSGVPDRFSGSGSGTDFTLKISRVEAEDVGTYYCMQGTHWPPMCSFGQGTKLEIK | < 0.001 | > 2 | 0.0007 | > 10 | – | – | – | – | –
14 | 10F7 (antibody, V domains shown) VH: EVQLVESGGGLVQPGRSLRLSCTASGFTFGDYAMSWFRQAPGKGLEWVGFIRSKAYGGTTEYAASVKGRFTISRDDSKSIAYLQMNSLKTEDTAVYYCTRASSLLWLLNPQPNFDYWGQGTLVTVSS VL: SYVLTQPPSVSVAPGQTARITCGGNNIGSNNVHWYQQKPGQAPVLVVYDDSDRPSGIPERFSGSNSGNTATLTISRVEAGDEADYYCQVWDSSSDHPVFGGGTKLTVL | – | – | – | – | < 0.01 | ≤ 2 | 0.002 | > 10 | –
